# Key:
# 4H2758-AA = target: T1, 4H2758-AA; test: two-hybrid library CCmax;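 further: natural log of median RNA to DNA barcode read ratio; higher means stronger binding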
# T1 chain: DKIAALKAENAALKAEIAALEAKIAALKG
# 4H278-AA = target: T2, 4H278-AA; test: two-hybrid library CCmax; settings: mean of both orientations;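 further: natural log of median RNA to DNA barcode read ratio; higher means stronger binding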
# T2 chain: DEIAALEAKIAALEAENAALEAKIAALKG
# 4H2873-AA = target: T3, 4H2873-AA; test: two-hybrid library CCmax; settings: mean of both orientations;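 further: natural log of median RNA to DNA barcode read ratio; higher means stronger binding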
# T3 chain: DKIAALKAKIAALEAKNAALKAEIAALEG
# 4H2985-AA = target: T4, 4H2985-AA; test: two-hybrid library CCmax; settings: mean of both orientations;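 further: natural log of median RNA to DNA barcode read ratio; higher means stronger binding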
# T4 chain: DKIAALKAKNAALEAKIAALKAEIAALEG
# 4H3134-AA = target: T5, 4H3134-AA; test: two-hybrid library CCmax; settings: mean of both orientations
# T5 chain: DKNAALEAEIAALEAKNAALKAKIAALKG
# 4H3409-AA = target: T6, 4H3409-AA; test: two-hybrid library CCmax; settings: mean of both orientations
# T6 chain: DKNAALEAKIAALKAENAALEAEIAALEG
# 4H3625-AA = target: T7, 4H3625-AA; test: two-hybrid library CCmax; settings: mean of both orientations
# T7 chain: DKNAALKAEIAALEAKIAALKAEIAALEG
# 4H390-AA = target: T8, 4H390-AA; test: two-hybrid library CCmax; settings: mean of both orientations
# T8 chain: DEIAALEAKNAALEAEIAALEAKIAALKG
# 4H3940-AA = target: T9, 4H3940-AA; test: two-hybrid library CCmax; settings: mean of both orientations
# T9 chain: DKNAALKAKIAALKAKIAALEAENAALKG
# 4H510-AA = target: T10, 4H510-AA; test: two-hybrid library CCmax; settings: mean of both orientations
# T10 chain: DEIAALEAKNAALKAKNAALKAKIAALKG
# 4H775-AA = target: T11, 4H775-AA; test: two-hybrid library CCmax; settings: mean of both orientations
# T11 chain: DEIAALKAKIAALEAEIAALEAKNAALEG
# 4H816-AA = target: T12, 4H816-AA; test: two-hybrid library CCmax; settings: mean of both orientations
# T12 chain: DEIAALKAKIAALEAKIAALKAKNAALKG
# 4H87-AA = target: T13, 4H87-AA; test: two-hybrid library CCmax; settings: mean of both orientations
# T13 chain: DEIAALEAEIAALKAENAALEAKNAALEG
# 4H2604-AA = target: T14, 4H2604-AA; test: two-hybrid library CCmax
# T14 chain: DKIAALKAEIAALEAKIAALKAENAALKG
# 4H2621-AA = target: T15, 4H2621-AA; test: two-hybrid library CCmax; settings: mean of both orientations
# T15 chain: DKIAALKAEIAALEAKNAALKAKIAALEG
# 4H2760-AA = target: T16, 4H2760-AA; test: two-hybrid library CCmax; settings: mean of both orientations
# T16 chain: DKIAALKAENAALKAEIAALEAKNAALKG
# 4H2774-AA = target: T17, 4H2774-AA; test: two-hybrid library CCmax; settings: mean of both orientations
# T17 chain: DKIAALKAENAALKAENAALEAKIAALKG
# 4H2903-AA = target: T18, 4H2903-AA; test: two-hybrid library CCmax; settings: mean of both orientations
# T18 chain: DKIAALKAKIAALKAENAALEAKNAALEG
# 4H2947-AA = target: T19, 4H2947-AA; test: two-hybrid library CCmax; settings: mean of both orientations
# T19 chain: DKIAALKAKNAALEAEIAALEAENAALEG
# 4H2961-AA = target: T20, 4H2961-AA; test: two-hybrid library CCmax; settings: mean of both orientations
# T20 chain: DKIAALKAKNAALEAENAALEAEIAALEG
# 4H3049-AA = target: T21, 4H3049-AA; test: two-hybrid library CCmax; settings: mean of both orientations
# T21 chain: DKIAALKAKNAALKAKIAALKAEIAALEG
# 4H3094-AA = target: T22, 4H3094-AA; test: two-hybrid library CCmax; settings: mean of both orientations
# T22 chain: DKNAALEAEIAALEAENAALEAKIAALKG
# 4H324-AA = target: T23, 4H324-AA; test: two-hybrid library CCmax; settings: mean of both orientations
# T23 chain: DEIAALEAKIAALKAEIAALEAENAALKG
# 4H341-AA = target: T24, 4H341-AA; test: two-hybrid library CCmax; settings: mean of both orientations
# T24 chain: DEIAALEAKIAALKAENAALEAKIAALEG
# 4H3449-AA = target: T25, 4H3449-AA; test: two-hybrid library CCmax; settings: mean of both orientations
# T25 chain: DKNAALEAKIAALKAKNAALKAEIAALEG
# 4H3619-AA = target: T26, 4H3619-AA; test: two-hybrid library CCmax; settings: mean of both orientations
# T26 chain: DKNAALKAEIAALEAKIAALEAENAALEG
# 4H3629-AA = target: T27, 4H3629-AA; test: two-hybrid library CCmax; settings: mean of both orientations
# T27 chain: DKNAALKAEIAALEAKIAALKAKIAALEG
# 4H3777-AA = target: T28, 4H3777-AA; test: two-hybrid library CCmax; settings: mean of both orientations
# T28 chain: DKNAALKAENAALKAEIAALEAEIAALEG
# 4H380-AA = target: T29, 4H380-AA; test: two-hybrid library CCmax; settings: mean of both orientations
# T29 chain: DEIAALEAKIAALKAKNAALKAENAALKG
# 4H3915-AA = target: T30, 4H3915-AA; test: two-hybrid library CCmax; settings: mean of both orientations
# T30 chain: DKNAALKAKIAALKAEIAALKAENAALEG
# 4H3974-AA = target: T31, 4H3974-AA; test: two-hybrid library CCmax; settings: mean of both orientations
# T31 chain: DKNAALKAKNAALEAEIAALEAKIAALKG
# 4H432-AA = target: T32, 4H432-AA; test: two-hybrid library CCmax; settings: mean of both orientations
# T32 chain: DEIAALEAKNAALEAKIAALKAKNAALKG
# 4H446-AA = target: T33, 4H446-AA; test: two-hybrid library CCmax; settings: mean of both orientations
# T33 chain: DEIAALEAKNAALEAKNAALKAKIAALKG
# 4H63-AA = target: T34, 4H63-AA; test: two-hybrid library CCmax; settings: mean of both orientations
# T34 chain: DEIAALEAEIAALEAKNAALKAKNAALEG
# P2-AA-12HAA-D = target: T35, P2-AA-12HAA-D; test: two-hybrid library CCmax; settings: mean of both orientations
# T35 chain: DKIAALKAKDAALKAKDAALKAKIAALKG
# P2-AA-12HAA-E = target: T36, P2-AA-12HAA-E; test: two-hybrid library CCmax; settings: mean of both orientations
# T36 chain: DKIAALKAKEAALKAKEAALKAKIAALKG
# P2-AA-12HAA-H = target: T37, P2-AA-12HAA-H; test: two-hybrid library CCmax; settings: mean of both orientations
# T37 chain: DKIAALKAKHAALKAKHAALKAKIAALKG
# P2-AA-12HAA-I = target: T38, P2-AA-12HAA-I; test: two-hybrid library CCmax; settings: mean of both orientations
# T38 chain: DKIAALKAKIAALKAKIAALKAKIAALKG
# P2-AA-12HAA-K = target: T39, P2-AA-12HAA-K; test: two-hybrid library CCmax; settings: mean of both orientations
# T39 chain: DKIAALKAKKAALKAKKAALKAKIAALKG
# P2-AA-12HAA-L = target: T40, P2-AA-12HAA-L; test: two-hybrid library CCmax; settings: mean of both orientations
# T40 chain: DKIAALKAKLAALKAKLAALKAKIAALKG
# P2-AA-12HAA-R = target: T41, P2-AA-12HAA-R; test: two-hybrid library CCmax; settings: mean of both orientations
# T41 chain: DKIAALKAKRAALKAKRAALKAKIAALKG
# P2-AA-12HAA-S = target: T42, P2-AA-12HAA-S; test: two-hybrid library CCmax; settings: mean of both orientations
# T42 chain: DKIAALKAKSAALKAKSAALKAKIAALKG
# P2-AA-12HAA-T = target: T43, P2-AA-12HAA-T; test: two-hybrid library CCmax; settings: mean of both orientations
# T43 chain: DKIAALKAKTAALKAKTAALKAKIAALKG
# P2-AA-12HAA-V = target: T44, P2-AA-12HAA-V; test: two-hybrid library CCmax; settings: mean of both orientations
# T44 chain: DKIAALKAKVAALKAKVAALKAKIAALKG
# P2-AA-12HAA-Y = target: T45, P2-AA-12HAA-Y; test: two-hybrid library CCmax; settings: mean of both orientations
# T45 chain: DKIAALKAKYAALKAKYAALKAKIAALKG
# P2-AA-12HGe-W = target: T46, P2-AA-12HGe-W; test: two-hybrid library CCmax
# T46 chain: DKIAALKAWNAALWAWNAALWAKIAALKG
# P2-AA = target: T47, P2-AA; test: two-hybrid library CCmax; settings: mean of both orientations
# T47 chain: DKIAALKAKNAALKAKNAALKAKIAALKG
# 4H2839-bH = target: T48, 4H2839-bH; test: two-hybrid library CCNG1
# T48 chain: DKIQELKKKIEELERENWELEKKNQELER
# 4H2915-bH = target: T49, 4H2915-bH; test: two-hybrid library CCNG1
# T49 chain: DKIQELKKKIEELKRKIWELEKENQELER
# 4H3057-bH = target: T50, 4H3057-bH; test: two-hybrid library CCNG1
# T50 chain: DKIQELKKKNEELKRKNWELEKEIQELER
# 4H319-bH = target: T51, 4H319-bH; test: two-hybrid library CCNG1
# T51 chain: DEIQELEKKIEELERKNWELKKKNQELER
# 4H3277-bH = target: T52, 4H3277-bH; test: two-hybrid library CCNG1
# T52 chain: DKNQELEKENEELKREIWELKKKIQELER
# 4H348-bH = target: T53, 4H348-bH; test: two-hybrid library CCNG1
# T53 chain: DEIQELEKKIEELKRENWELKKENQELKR
# 4H40-bH = target: T54, 4H40-bH; test: two-hybrid library CCNG1
# T54 chain: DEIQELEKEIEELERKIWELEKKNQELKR
# 4H477-bH = target: T55, 4H477-bH; test: two-hybrid library CCNG1
# T55 chain: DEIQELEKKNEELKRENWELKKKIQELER
# 4H492-bH = target: T56, 4H492-bH; test: two-hybrid library CCNG1
# T56 chain: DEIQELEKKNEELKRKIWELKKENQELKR
# 4H741-bH = target: T57, 4H741-bH; test: two-hybrid library CCNG1
# T57 chain: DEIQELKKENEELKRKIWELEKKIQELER
binder,measurement,setting,value
DKIAALKAENAALKAEIAALEAKIAALKG [4H2758-AA],interaction score,4H2758-AA,1.56
same,interaction score,4H278-AA,-0.138
same,interaction score,4H2873-AA,-0.654
same,interaction score,4H2985-AA,1.59
same,interaction score,4H3134-AA,0.499
same,interaction score,4H3409-AA,-0.325
same,interaction score,4H3625-AA,-0.393
same,interaction score,4H390-AA,0.895
same,interaction score,4H3940-AA,-1.45
same,interaction score,4H510-AA,0.225
same,interaction score,4H775-AA,-0.652
same,interaction score,4H816-AA,-1.38
same,interaction score,4H87-AA,-1.35
DKIAALKAEIAALEAKIAALKAENAALKG [4H2604-AA],interaction score,4H2604-AA,1.78
same,interaction score,4H2621-AA,-0.139
same,interaction score,4H2760-AA,-1.02
same,interaction score,4H2774-AA,-1.79
same,interaction score,4H2903-AA,-0.407
same,interaction score,4H2947-AA,-1.68
same,interaction score,4H2961-AA,-1.69
same,interaction score,4H3049-AA,-0.492
same,interaction score,4H3094-AA,-1.23
same,interaction score,4H324-AA,2.07
same,interaction score,4H341-AA,0.155
same,interaction score,4H3449-AA,-0.758
same,interaction score,4H3619-AA,-0.188
same,interaction score,4H3629-AA,1.84
same,interaction score,4H3777-AA,-1.38
same,interaction score,4H380-AA,1.01
same,interaction score,4H3915-AA,0.216
same,interaction score,4H3974-AA,-0.774
same,interaction score,4H432-AA,-1.37
same,interaction score,4H446-AA,-1.79
same,interaction score,4H63-AA,-1.37
DEIAALEAEDAALEAEDAALEAEIAALEG [P1-AA-12HAA-D],interaction score,P2-AA-12HAA-D,-1.35
same,interaction score,P2-AA-12HAA-E,-1.33
same,interaction score,P2-AA-12HAA-H,0.205
same,interaction score,P2-AA-12HAA-I,-0.345
same,interaction score,P2-AA-12HAA-K,0.46
same,interaction score,P2-AA-12HAA-L,-1.19
same,interaction score,P2-AA-12HAA-R,1.84
same,interaction score,P2-AA-12HAA-S,0.438
same,interaction score,P2-AA-12HAA-T,-1.11
same,interaction score,P2-AA-12HAA-V,-0.204
same,interaction score,P2-AA-12HAA-Y,-1.44
same,interaction score,P2-AA-12HGe-W,-2.4
same,interaction score,P2-AA,-0.884
DKIQELKKKIEELERENWELEKKNQELER [4H2839-bH],interaction score,4H2839-bH,1.04
same,interaction score,4H2915-bH,0.242
same,interaction score,4H3057-bH,0.0652
same,interaction score,4H319-bH,1.44
same,interaction score,4H3277-bH,-1.06
same,interaction score,4H348-bH,0.581
same,interaction score,4H40-bH,0.0596
same,interaction score,4H477-bH,-0.629
same,interaction score,4H492-bH,-0.474
same,interaction score,4H741-bH,-0.868

# Source: publication PMC10397247
